According to PMC9253516:
Values belong to the binder of their own block, whether it stands above or below them.

Tests used:
[1] = target: T1, Aurora B (endogenous), Q96GD4; test: LacO-LacI tethering assay, immunofluorescence in U-2 OS-LacO Haspin CM cells; conditions: chain shown with the change, red bar = mean, read off a plot
T1 chain: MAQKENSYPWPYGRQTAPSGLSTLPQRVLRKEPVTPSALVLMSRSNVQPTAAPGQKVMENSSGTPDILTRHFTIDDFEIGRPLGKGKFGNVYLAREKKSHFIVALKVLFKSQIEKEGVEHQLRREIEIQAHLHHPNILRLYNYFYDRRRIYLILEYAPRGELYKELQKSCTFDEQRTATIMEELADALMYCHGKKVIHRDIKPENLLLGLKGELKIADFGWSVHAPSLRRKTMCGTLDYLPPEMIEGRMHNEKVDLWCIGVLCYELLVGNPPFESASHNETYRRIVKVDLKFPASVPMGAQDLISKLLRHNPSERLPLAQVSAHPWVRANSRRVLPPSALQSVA

[2] = target: T2, Borealin (endogenous), Q53HL2; test: as above; conditions: chain shown with the change, n = 21 (mutant), n = 22 (parent), red bar = mean, read off a plot
T2 chain: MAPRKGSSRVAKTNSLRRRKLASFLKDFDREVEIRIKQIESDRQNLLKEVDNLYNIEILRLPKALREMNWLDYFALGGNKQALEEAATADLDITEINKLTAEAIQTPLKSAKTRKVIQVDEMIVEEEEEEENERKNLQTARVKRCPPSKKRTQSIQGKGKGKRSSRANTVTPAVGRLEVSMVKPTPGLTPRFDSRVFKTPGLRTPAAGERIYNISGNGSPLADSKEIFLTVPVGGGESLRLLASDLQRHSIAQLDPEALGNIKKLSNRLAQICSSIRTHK

response ([1]; n = 23 (mutant), n = 10 (parent), parent: est. 1.2): 0.15 a.u.
response ([2]; parent: est. 1.4): 0.25 a.u.
B1: Sgo1_(159–240)-LacI-GFP, Q5FBB7 V188A; S189A; V190A; R191A (protein)
chain: QIPTIPQDTLGVDFDSGEAKSTDNVLPRTAAAASSLKKHCNSICQFDSLDDFETSHLAGKSFEFERVGFLDPLVNMHIPENV

response ([1]; n = 22 (mutant), n = 20 (parent), parent: est. 0.85): 0.1 a.u.
response ([2]; parent: est. 1.2): 0.18 a.u.
B2: Sgo1_(130–280)-LacI-GFP, Q5FBB7 V188A; S189A; V190A; R191A (protein)
chain: RNLFVKDLPQIPLEETELPGQGESFQIEDQIPTIPQDTLGVDFDSGEAKSTDNVLPRTAAAASSLKKHCNSICQFDSLDDFETSHLAGKSFEFERVGFLDPLVNMHIPENVQHNACQWSKDQVNLSPKLIQPGTFTKTKEDILESKSEQTK
